# Measurements published in paper PMC4928127, “Determination of GLUT1 Oligomerization Parameters using Bioluminescent Förster Resonance Energy Transfer” (Scientific Reports, 2016).
# T1: Nluc-GLUT1 (mouse, UniProt P17809 1-492)
# T1 construct: facilitated glucose transporter GLUT1 (SLC2A1), mouse Glut1 open reading frame; BRET donor; also called GLUT1 fused to Nluc at the N-terminus; not shown: Nanoluciferase (Nluc), N-terminal, kept
# T1 sequence (looked up): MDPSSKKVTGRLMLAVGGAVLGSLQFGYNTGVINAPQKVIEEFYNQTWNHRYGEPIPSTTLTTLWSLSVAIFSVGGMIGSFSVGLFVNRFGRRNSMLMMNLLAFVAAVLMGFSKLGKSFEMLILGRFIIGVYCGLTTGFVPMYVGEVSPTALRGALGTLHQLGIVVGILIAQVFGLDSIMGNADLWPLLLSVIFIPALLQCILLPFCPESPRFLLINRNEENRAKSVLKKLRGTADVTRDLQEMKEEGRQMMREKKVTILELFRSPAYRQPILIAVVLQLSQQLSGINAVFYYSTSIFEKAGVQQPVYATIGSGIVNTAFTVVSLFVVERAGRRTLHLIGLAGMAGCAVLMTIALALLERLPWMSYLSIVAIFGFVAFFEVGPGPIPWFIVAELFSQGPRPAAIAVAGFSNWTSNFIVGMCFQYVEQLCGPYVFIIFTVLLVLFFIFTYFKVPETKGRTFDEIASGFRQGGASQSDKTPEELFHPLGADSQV
# Target: T1, Nluc-GLUT1
# Experiment: FRET or BRET; stable polyclonal 293FT/dox^GB1 cells: constitutive Nluc-GLUT1, mCherry-GLUT1 induced 48 hours with a 2-fold serial dilution of doxycycline; corrected BRET against doxycycline and against mCherry-GLUT1 level relative to endogenous GLUT1 by immunoblot
# Conditions: partners not purified
binder,measurement,value
"mCherry-GLUT1 (natural protein, mouse, UniProt P17809 1-492, looked up, facilitated glucose transporter GLUT1 (SLC2A1), mouse Glut1 open reading frame; BRET acceptor; also called GLUT1 fused to mCherry at the N-terminus; not shown: mCherry, N-terminal, kept) MDPSSKKVTGRLMLAVGGAVLGSLQFGYNTGVINAPQKVIEEFYNQTWNHRYGEPIPSTTLTTLWSLSVAIFSVGGMIGSFSVGLFVNRFGRRNSMLMMNLLAFVAAVLMGFSKLGKSFEMLILGRFIIGVYCGLTTGFVPMYVGEVSPTALRGALGTLHQLGIVVGILIAQVFGLDSIMGNADLWPLLLSVIFIPALLQCILLPFCPESPRFLLINRNEENRAKSVLKKLRGTADVTRDLQEMKEEGRQMMREKKVTILELFRSPAYRQPILIAVVLQLSQQLSGINAVFYYSTSIFEKAGVQQPVYATIGSGIVNTAFTVVSLFVVERAGRRTLHLIGLAGMAGCAVLMTIALALLERLPWMSYLSIVAIFGFVAFFEVGPGPIPWFIVAELFSQGPRPAAIAVAGFSNWTSNFIVGMCFQYVEQLCGPYVFIIFTVLLVLFFIFTYFKVPETKGRTFDEIASGFRQGGASQSDKTPEELFHPLGADSQV",doxycycline concentration at which ~50% of mCherry-GLUT1 is in multimeric complexes (doxycycline EC50 of BRET),4.69 ng/mL
